Assay results published in article PMC9418424.

Target: (AcA4)2KD amphiphilic peptide ((Ac-Ala-Ala-Ala-Ala)2-Lys-Asp-OH)
Assay: dynamic light scattering

critical aggregation concentration: 0.8 mM
Substance: (AcA4)2KD amphiphilic peptide ((Ac-Ala-Ala-Ala-Ala)2-Lys-Asp-OH)
